Source: US20020006638A1, “Methods for recombinant microbial production of fusion proteins and BPI-derived peptides” (priority 1998, published 2002)

Key:
E. coli J5 = assay: Radial diffusion assay, antibacterial activity; assay type: cell-based; conditions: order: XMP.284, XMP.13, XMP.391, XMP.366, XMP.353, XMP.406, XMP.407 (most to least)
Method: To assess the antibacterial activity of the recombinantly produced peptides, additional experiments are conducted with E. coli J5 or E. coli E104 cells in a radial diffusion assay. For these experiments, cultures of E. coli J5 were grown overnight in TYE broth (15 g tryptone, 10 g yeast extract, 5 g NaCl per liter) and then grown to mid logarithmic phase in TEA broth media (Simon et al., Proc. Nat'l. Acad. Sci. (USA), 51:877-883 (1964)). E. coli J5 cells at 2-3×10^5 cells/mL were added to molten 0.8% agarose containing nutrient broth. Serial dilutions of peptides were prepared in 0.15 M NaCl. Five μl of the diluted peptides, or as a control, saline alone, were added to 3 mm wells prepared in the hardened agarose (5 μl/well). The plates were sealed with parafilm to prevent drying and incubated at 37° C. for 24 hours. Zones of inhibition were measured and the net areas of inhibition determined by subtracting the area comprising the 3 mm well from the area encompassing the 3 mm well plus the inhibition zone. Recombinantly produced peptides are assayed for antibacterial activity and compared to the equivalent synthetic peptides. […] Synthetic peptides XMP.406 and XMP.407 have the same sequences as peptides prepared from the encoded fusion protein described in Example 1, Section 7 and Example 3.

[1] = test system: human, rabbit and sheep red blood cells and several human tumor cell lines; conditions: 10^−6 M; cited from earlier work
gram-negative bacteria = conditions: broad range of gram-negative bacteria; Elsbach and Weiss (1992); cited from earlier work
[2] = test system: Staphylococcus aureus (four strains), Staphylococcus epidermidis, Streptococcus faecalis, Bacillus subtilis, Micrococcus lysodeikiticus, and Listeria …; conditions: 10^−6 M or 160 μg/mL; pH of either 7.0 or 5.5; cited from earlier work
[3] = test system: Candida albicans and Candida parapsilosis; conditions: 10^−6 M; pH 7.0 or 5.5; cited from earlier work

XMP.284: BPI 149-161, K @ 152 (G) (SKVKWLIQLFHK)
antibacterial activity, rank order of synthetic peptides (E. coli J5): the most antibacterial activity

XMP.407: BPI 147-162, P @ 147 (S), A @ 153 (W), D @ 162 (I) (PKSKVGALIQLFHKKD)
antibacterial activity, rank order of synthetic peptides (E. coli J5): the least bactericidal

B1: BPI: bactericidal/permeability-increasing protein, isolated from granules of mammalian polymorphonuclear leukocytes, approximately 55 kD (protein, UniProt P17213 32-487, looked up)
Bactericidal …: VNPGVVVRISQKGLDYASQQGTAALQKELKRIKIPDYSDSFKIKHLGKGHYSFYSMDIREFQLPSSQISMVPNVGLKFSISNANIKISGKWKAQKRFLKMSGNFDLSIEGMSISADLKLGSNPTSGKPTITCSSCSSHINSVHVHISKSKVGWLIQLFHKKIESALRNKMNSQVCEKVTNSVSSELQPYFQTLPVMTKIDSVAGINYGLVAPPATTAETLDVQMKGEFYSENHHNPPPFAPPVMEFPAAHDRMVYLGLSDYFFNTAGLVYQEAGVLKMTLRDDMIPKESKFRLTTKFFGTFLPEVAKKFPNMKIQIHVSASTPPHLSVQPTGLTFYPAVDVQAFAVLPNSSLASLFLIGMHTTGSMEVSAESNRLVGELKLDRLLLELKHSNIGPFPVELLQDIMNYIVPILVLPRVNEKLQKGFPLPTPARVQLYNVVLQPHQNFLLFGADVVYK
toxicity to higher eukaryotic cells [1]: non-toxic | concentration at which anti-bacterial activity is exhibited (as low as) (gram-negative bacteria): 10^−8 to 10^−9 M | toxic effect on gram-positive organisms [2]: no toxic effect | toxic effect on fungi [3]: no toxic effect
